From US6641997B1, “Assays for screening compounds which interact with cation channel proteins, mutant prokaryotic cation channel proteins, and uses thereof” (The Rockefeller University, priority 1998, dated 2003)

Legend:
[1] = target: T1, mutant kcsa K+ channel (Q58A, T61S, R64D) (Streptomyces lividans, UniProt P0A334, P2A/Q58A/R64D/T61S); test: Competition binding assay: unlabeled toxin against labeled Agitoxin2 on mutant kcsa K+ channel resin; conditions: for Kd: labeled toxin 0.06 μM, Kdhot 0.62 μM, FIG. 11B, read-out: competing toxin dissociation constant Kdcold; for decrease of affinity caused by the toxin mutation: relative to wild type agitoxin2
T1 construct: made in house; host or cells: E. coli XL-1 Blue
T1 sequence (P0A334 1-158 P2A/Q58A/T61S/R64D limits assumed): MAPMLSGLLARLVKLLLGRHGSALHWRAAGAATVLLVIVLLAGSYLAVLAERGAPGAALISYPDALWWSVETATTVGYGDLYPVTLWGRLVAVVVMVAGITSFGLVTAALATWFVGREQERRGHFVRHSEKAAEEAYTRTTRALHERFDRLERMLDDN
Description: (§1) Three mutations (Q58A, T61S, R64D) were introduced into the kcsa K^+ channel gene to modify its pore region sequence using PCR mutagenesis and confirmed by DNA sequencing. The gene also contained a mutation at the second residue (P2A) to introduce an ncol restriction endonuclease site and it was lacking the last two carboxyl terminal residues (both Arg) to avoid proteolysis during the protein preparation. This gene was cloned into the pQE60 vector for expression with a carboxyl terminal thrombin and hexahistidine fusion. Channel protein was expressed in XL-1 Blue strain of E. coli (Stratagene) by induction with […] at a concentration of 1.0 mM. Three hours following induction bacteria were sonicated in 50 mM Tris buffer (7.5), 100 mM KCl, 10 mM Mg2SO4, 25 mg DNAse 1, 250 mM sucrose, in addition to pepstatin, leupeptin, and PMSF. The channel was extracted in the same solution containing 40 mM decylmaltoside (Anatrace) at room temperature. Following centrifugation the supernatant was bound to cobalt resin (Talon) at a protein to resin ratio that will saturate the resin. The resin was washed, and detergent concentration was lowered to 10.0 mM. One mL columns were prepared. The control resin (no channel) was handled in the same manner. The resin preparation was the same for mass spectrometry and binding studies.
(§2) Wild type and mutant agitoxin2 were prepared (10). Tritiated N-ethylmaleimide (NEN Life Sciences) was conjugated to agitoxin2 D20C (14). Binding was performed in a 300 μL volume containing 50 mM Tris (7.5), 100 mM KCl, 10 mM declymaltoside, and 0.3 μL of cobalt resin saturated with the mutant kcsa K^+ channel for 30 minutes at room temperature. Following brief centrifugation the supernatant was removed, resin was applied to a filter, rinsed briefly with ice cold buffer, and then counted in a scintillation counter. All binding measurements were made with a paired control containing a saturating concentration (200 times KD) of unlabeled wild type agitoxin2 to determine nonspecific binding. The competition assay was carried out under the same conditions. Labeled Agitoxin2 at 0.06 μM was always present and unlabeled toxin was added to compete with bound labeled toxin.
as §2, with “17. Wild” for “Wild”, “Kd)” for “KD)”

[2] = target: T1, mutant kcsa K+ channel (Q58A, T61S, R64D); test: Mutant kcsa K+ channel cobalt column screen of scorpion venom, eluate analysed by MALDI-TOF mass spectrometry; format: binding; conditions: 40 mg Leiurus quinquestriatus hebraeus venom on 1 mL column, imidazole elution
Description: FIG. 10. Mass Spectra of scorpion toxins before and after channel column purification MALDI-TOF mass spectra of venom before purification (A) and after elution from a cobalt column in the absence (B) and presence (C) of attached mutant kesa K^+ channel. The accuracy of the mass measurements (±0.3 Da) permitted identification of most of the major peaks in the mass spectra searched from databases of known toxins of the Leiurus quinquestratus hebraeus scorpion (D). The kesa-binding component labeled * could not be assigned to a known scorpion toxin. The component labeled X (4193.0 Da) binds nonspecifically to the column and was not identified. MALDI_MS was performed with the MALDI matrix 4-hydroxy-α-cyano-cinnamic acid (16 of Example II).
as §1, with “Following centrifugation the supernatant was bound to cobalt resin (Talon) at a protein to resin ratio that will saturate the resin. The resin was washed, and detergent concentration was lowered to 10.0 mM. One mL columns were prepared. The control resin (no channel) was handled in the same manner. The resin preparation was the same for mass spectrometry and binding studies.” left out
Guided by knowledge of the toxin receptor on the Shaker K^+ channel, set forth in SEQ ID NO:4, three point mutations were introduced into the kcsa K^+ channel (SEQ ID NO: 1) that should render it sensitive to scorpion toxins (FIG. 9). […] The eluate was analyzed with MALDI-TOF mass spectrometry, focusing on the low mass range appropriate for scorpion toxins (about 4000 Da). […]

Row | Substance | Kd [1] | decrease of affinity caused by the toxin mutation [1] | binding to the channel column (mass peak in the eluate) [2]
1 | K27A: Agitoxin2 mutant, Lys 27 substituted by alanine | 81 µM | 130 fold | –
2 | N30A: Agitoxin2 mutant, Asn 30 substituted by alanine | 27 µM | 45 fold | –
3 | agitoxin2 | 0.62 µM | – | dramatic enhancement of specific peaks
4 | charybdotoxin | – | – | dramatic enhancement of specific peaks
5 | chlorotoxin | – | – | did not bind
